# Source: doi:10.1101/188995 (bioRxiv, 2018)
# Target: the molecule itself
# Experiment: negative-stain transmission electron microscopy
protein,measurement,value
"recombinant B. subtilis TasA(28-261), fibre-forming (natural protein, B. subtilis NCIB3610, UniProt P54507 28-261, looked up) AFNDIKSKDATFASGTLDLSAKENSASVNLSNLKPGDKLTKDFQFENNGSLAIKEVLMALNYGDFKANGGSNTSPEDFLSQFEVTLLTVGKEGGNGYPKNIILDDANLKDLYLMSAKNDAAAAEKIKKQIDPKFLNASGKVNVATIDGKTAPEYDGVPKTPTDFDQVQMEIQFKDDKTKDEKGLMVQNKYQGNSIKLQFSFEATQWNGLTIKKDHTDKDGYVKENEKAHSEDKN",binding result,binds
